How the values were obtained:
[1] = target: T1, natural Fel d1 (Indoor Biotech, #NA-FD1-2) (cat, UniProt P30438 23-92; P30440 18-109); experiment: Octet BLI, mAb captured on anti-hFc tip, 500 nM nFel d1
T1 construct: Bought natural heterodimeric glycoprotein, chains linked by disulfide bonds; also called nFel d1; nFel d 1

[2] = target: T1, natural Fel d1 (Indoor Biotech, …); experiment: Octet BLI sandwich; captured mAb-1 H4H1300N, which did not pre-complex with nFel d1; self-competition value subtracted
[3] = target: T1, natural Fel d1 (Indoor Biotech, …); experiment: Octet BLI sandwich; nFel d1 pre-complexed with captured mAb-1 H4H1616N (competitor); self-competition value subtracted
[4] = target: T1, natural Fel d1 (Indoor Biotech, …); experiment: Octet BLI sandwich; nFel d1 pre-complexed with captured mAb-1 H4H1238N (competitor); self-competition value subtracted
[5] = target: T1, natural Fel d1 (Indoor Biotech, …); experiment: Octet BLI sandwich; nFel d1 pre-complexed with captured mAb-1 H4H2597P (competitor); self-competition value subtracted
[6] = target: T1, natural Fel d1 (Indoor Biotech, …); experiment: Octet BLI sandwich; nFel d1 pre-complexed with captured mAb-1 H4H2645P (competitor); self-competition value subtracted
[7] = target: T1, natural Fel d1 (Indoor Biotech, …); experiment: SPR (Biacore), mAb captured, natural Fel d1 injected, 25 C;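 further: rate constants obtained by fitting association and dissociation phases to a one-to-one binding model, with Kd and half-life derived from those rate constants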
[8] = target: T1, natural Fel d1 (Indoor Biotech, …); experiment: Octet BLI sandwich; nFel d1 pre-complexed with captured mAb-1 H4H1232N (competitor); self-competition value subtracted
[9] = target: T1, natural Fel d1 (Indoor Biotech, …); experiment: Octet BLI sandwich; nFel d1 pre-complexed with captured mAb-1 H4H2636P (competitor); self-competition value subtracted
[10] = target: T1, natural Fel d1 (Indoor Biotech, …); experiment: Octet BLI sandwich; nFel d1 pre-complexed with captured mAb-1 H4H2864P (competitor); self-competition value subtracted
[11] = target: T1, natural Fel d1 (Indoor Biotech, …); experiment: SPR (Biacore 2000), mAb captured via anti-human Fc, nFel d 1 injected, 25 C

T1 sequence (P30438 other isoform, or with tags, fused parts or gaps, chain 1 of 2): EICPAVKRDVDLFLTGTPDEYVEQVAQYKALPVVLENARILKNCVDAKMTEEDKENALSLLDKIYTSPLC
T1 sequence (P30440 18-109, chain 2 of 2): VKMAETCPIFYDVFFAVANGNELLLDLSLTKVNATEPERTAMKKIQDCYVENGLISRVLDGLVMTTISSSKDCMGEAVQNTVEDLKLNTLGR

Amount of 500 nM nFel d1 Bound [1] [nm] | Response of mAb-2 Binding to nFel d1 pre-complexed with mAb-1 [2] [nm] | Response of mAb-2 Binding to nFel d1 pre-complexed with mAb-1 [3] [nm] | Response of mAb-2 Binding to nFel d1 pre-complexed with mAb-1 [4] [nm] | Response of mAb-2 Binding to nFel d1 pre-complexed with mAb-1 [5] [nm] | Response of mAb-2 Binding to nFel d1 pre-complexed with mAb-1 [6] [nm] | Kd [7] [nM] | koff [7] [s⁻¹] | kon [7] [M⁻¹ s⁻¹] | t1/2 [7] [min] | Response of mAb-2 Binding to nFel d1 pre-complexed with mAb-1 [8] [nm] | Response of mAb-2 Binding to nFel d1 pre-complexed with mAb-1 [9] [nm] | Response of mAb-2 Binding to nFel d1 pre-complexed with mAb-1 [10] [nm] | 600 nM nFel d 1 Bound (RU) [11] [RU] | Kd [11] [nM] | koff [11] [s⁻¹] | kon [11] [M⁻¹ s⁻¹] | t1/2 [11] [min] | Binder
0.1 | 0.05 | -0.01 | 0.62 | 0.55 | 0 | 0.459 | 0.000261 | 569000 | 44 | 0.75 | 0 | -0.01 |  |  |  |  |  | H4H2645P (antibody, human IgG4, V domains shown, human IgG4 Fc (H4H prefix)) VH: EVQLVESGGGLVQPGGSLRLSCAASGFTFSTYAMHWVRQAPGKGLEWVSSISGRGRNSDHADSVKGRFTISRDNSKNTLYLQMNSLRAEDTAVYYCARTEYFHHWGQGTLVTVSS VL: DIQMTQSPSSLSASVGDRITITCRASQDINNYLAWFQQKPGKAPKSLIYGASSLQSGVPSKFSGSGSGTDFTLTISSLQPEDFATYYCQQYSSYPFTFGPGTKVDIK
0.08 | 0.02 | 0.18 | 0.76 | -0.03 |  | 0.207 | 0.000331 | 1.6e+06 | 35 | 0 | 0.29 | 0.3 | 42 | 0.155 | 0.000472 | 3.05e+06 | 24 | H4H1232N (antibody, human IgG4, V domains shown, human IgG4 Fc (H4H prefix)) VH: EVQLVESGGGLVKPGGSLRLSCAASGFTFRNYNINWVRQAPGKGLEWVSLISGSSSYIYYADSVKGRFTVSRDNAKNSLYLQMNSLRAEDTAVYYCARRTLSYYVMDVWGQGTTVTVSS VL: DIQVTQSPSPLSASVGDRVTITCRASQGISNYLAWYQQKPGRVPQLLIYAASTLQSGVPSRFSGSGSGTDFTLTISSLQPEDVATYYCQKYNSAPYTFGQGTKLEIK
0.08 | 0.06 | -0.01 | 0.62 | 0.54 | -0.01 | 0.801 | 0.00135 | 1.68e+06 | 9 | 0.71 | 0 | 0 |  |  |  |  |  | H4H2864P (antibody, human IgG4, V domains shown, human IgG4 Fc (H4H prefix)) VH: EVQLVESGGGLAQPGGSLRLSCAASGFTFNNYAMTWVRQAPGKGLDWVSAISDSGRSTFSADSVKGRFTISRDNSKNTLYLQMDSLRAEDTALYYCAKHRNWNYPVFDYWGQGTLVTVSS VL: DIQLTQSPSFLSASVGDRVTITCWASQGISSYLAWYQQKPGKAPKLLIYSASTLQSGVPSRFSGSGSGTEFTLTISSLQPEDFATYYCQQLNSYPFTFGPGTKVDIK
0.09 | 0.06 | 0 | 0.43 | 0.4 | 0.01 | 5.14 | 0.00124 | 241000 | 9 | 0.54 | 0.01 | 0.01 |  |  |  |  |  | H4H1616N (antibody, human IgG4, V domains shown, human IgG4 Fc (H4H prefix)) VH: EVELLESGGGLVQPGGSLRLSCAASGFTFSSYAMSWVRQAPGKGLEWVSSISGRVGSTHFADSVKGRFTFSRDNSKNTLYLQLSSLRAEDTAVYYCARSRGAAYFDYWGQGTLVTVSS VL: DIQMTQSPSSLSASVGDRVTITCQANQDISNFLNWYQQRPGKAPNLLIYAASNLETGVPSRFSGSGSGTDFTFTISSLQPEDIATYYCQHYDNFPFTFGPGTKVDIK
